Residue numbers refer to the chain shown, from its start. One block for each binder: values may come before it.
Columns and labels:
[1] = target: T1, recombinant human B7H3-Fc protein (human, UniProt Q5ZPR3 29-466, limits assumed); test: phage ELISA
T1 construct: 154 kDa non-reduced, 77 kDa reduced; also called hB7H3-Fc; not shown: Fc part
T1 sequence (looked up): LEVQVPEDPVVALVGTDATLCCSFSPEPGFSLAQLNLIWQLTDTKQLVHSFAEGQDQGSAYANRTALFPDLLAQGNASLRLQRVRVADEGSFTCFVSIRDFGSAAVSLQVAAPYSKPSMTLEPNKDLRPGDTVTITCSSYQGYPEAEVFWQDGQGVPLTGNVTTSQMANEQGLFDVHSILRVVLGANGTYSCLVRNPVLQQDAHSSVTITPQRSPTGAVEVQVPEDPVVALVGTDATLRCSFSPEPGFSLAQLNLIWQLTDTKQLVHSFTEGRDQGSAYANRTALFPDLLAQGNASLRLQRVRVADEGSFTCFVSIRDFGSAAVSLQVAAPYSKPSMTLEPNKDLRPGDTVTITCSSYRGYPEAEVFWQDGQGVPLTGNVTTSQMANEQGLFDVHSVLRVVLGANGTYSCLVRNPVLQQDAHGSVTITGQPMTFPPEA
Summary of the method: (§1)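 For 3 rounds, recombinant B7H3-Fc protein served as the panning target for camel VHH phage drawn from eight individual camels' libraries. Each entry gives the ELISA signal for binding of selected phage to an immobilised antigen, either human or other-species B7H3 or a control protein, measured by phage ELISA.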

IgG control = test: phage ELISA
Summary of the method: as §1

[2] = target: T1, recombinant human B7H3-Fc protein; test: ELISA, purified VHH
Summary of the method: (§2)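 Binding of the purified camel VHH nanobodies is given as the ELISA signal. The immobilised recombinant proteins included B7H3 fusion proteins and proteins other than B7H3. The nanobodies were isolated beforehand by phage panning on recombinant B7H3-Fc.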

monkey B7H3-His [3] = target: T2, monkey B7H3-His (monkey); test: phage ELISA, cross-species
T2 chain: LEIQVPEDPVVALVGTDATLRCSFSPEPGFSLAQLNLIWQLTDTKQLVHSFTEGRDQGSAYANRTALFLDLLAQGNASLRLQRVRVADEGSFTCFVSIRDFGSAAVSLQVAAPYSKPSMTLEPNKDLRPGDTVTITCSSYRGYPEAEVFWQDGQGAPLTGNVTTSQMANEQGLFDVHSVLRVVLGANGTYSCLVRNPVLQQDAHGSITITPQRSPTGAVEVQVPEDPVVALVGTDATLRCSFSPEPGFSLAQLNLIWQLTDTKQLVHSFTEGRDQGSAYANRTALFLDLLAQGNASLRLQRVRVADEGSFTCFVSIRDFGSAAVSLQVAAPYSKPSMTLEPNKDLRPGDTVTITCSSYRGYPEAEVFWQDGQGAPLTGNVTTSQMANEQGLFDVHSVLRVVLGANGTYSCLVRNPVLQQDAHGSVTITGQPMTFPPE
Summary of the method: as §1

rat B7H3-His [4] = target: T3, rat B7H3-His (rat, UniProt Q7TPB4 29-244, limits assumed); test: phage ELISA, cross-species
T3 construct: not shown: His tag
T3 sequence (looked up): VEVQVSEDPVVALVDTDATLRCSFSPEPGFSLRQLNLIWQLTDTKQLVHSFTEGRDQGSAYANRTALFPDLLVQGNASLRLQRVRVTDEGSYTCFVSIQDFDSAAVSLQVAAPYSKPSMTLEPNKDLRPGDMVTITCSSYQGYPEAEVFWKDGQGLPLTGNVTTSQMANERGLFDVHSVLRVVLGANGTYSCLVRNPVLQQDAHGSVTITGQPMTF
Summary of the method: as §1

mouse B7H3-His = target: T4, mouse B7H3-His (mouse, UniProt Q8VE98 29-244, limits assumed); test: phage ELISA, cross-species
T4 construct: also called recombinant mouse B7H3-His protein; not shown: His tag
T4 sequence (looked up): T3 sequence (looked up) with R33A, A62S, D131N, L156V, M214L
Summary of the method: as §1

human B7H3 = target: T5, human B7H3 (human, UniProt Q5ZPR3 29-466, limits assumed); test: phage ELISA, cross-species
T5 construct: also called human B7H3 protein
T5 sequence (looked up): T1 sequence (looked up)
Summary of the method: as §1

Non-relevant antigen [5] = test: phage ELISA, cross-species
Summary of the method: as §1

PD-L1 = test: ELISA, purified VHH, cross-reaction
Chain of PD-L1 (Q9NZQ7 whole entry): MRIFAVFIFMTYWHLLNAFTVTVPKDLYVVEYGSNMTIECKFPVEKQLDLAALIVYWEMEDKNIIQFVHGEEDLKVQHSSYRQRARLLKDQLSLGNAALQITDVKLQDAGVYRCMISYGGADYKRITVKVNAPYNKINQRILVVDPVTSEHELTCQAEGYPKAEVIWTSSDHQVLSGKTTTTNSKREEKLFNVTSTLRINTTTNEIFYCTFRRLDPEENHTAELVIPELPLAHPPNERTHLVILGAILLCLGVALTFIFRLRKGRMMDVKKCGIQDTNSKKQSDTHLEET

[6] = target: T6, B7H3 (CD276) on MC38-CD276+ cells; test: flow cytometry on MC38-CD276+ cells, VHH at 2 ug/ml
T6 construct: whole, on cells; MC38-CD276KO cells served as the negative control; also called MC38-B7H3+
T6 sequence (Q5ZPR3 1-534, species assumed, looked up): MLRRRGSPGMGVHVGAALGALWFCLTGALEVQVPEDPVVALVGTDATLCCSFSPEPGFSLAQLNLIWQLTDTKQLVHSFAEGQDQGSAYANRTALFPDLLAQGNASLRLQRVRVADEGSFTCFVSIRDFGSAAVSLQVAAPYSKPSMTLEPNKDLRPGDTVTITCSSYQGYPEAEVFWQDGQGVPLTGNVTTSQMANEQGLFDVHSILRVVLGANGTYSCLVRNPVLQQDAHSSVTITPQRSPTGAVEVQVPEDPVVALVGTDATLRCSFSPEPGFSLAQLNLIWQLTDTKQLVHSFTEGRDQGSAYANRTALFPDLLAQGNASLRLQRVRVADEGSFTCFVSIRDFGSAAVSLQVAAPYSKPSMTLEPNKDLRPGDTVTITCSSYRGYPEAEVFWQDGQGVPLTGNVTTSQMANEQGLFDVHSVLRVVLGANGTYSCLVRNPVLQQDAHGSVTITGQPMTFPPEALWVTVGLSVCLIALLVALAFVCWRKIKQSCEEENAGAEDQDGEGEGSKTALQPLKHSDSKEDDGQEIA

[7] = target: T6, B7H3 (CD276) on MC38-CD276+ cells; test: flow cytometry on MC38-CD276+ cells, VHH at 10 ug/ml
[8] = target: T6, B7H3 (CD276) on MC38-CD276+ cells; test: flow cytometry on MC38-CD276+ cells, VHH at 50 ug/ml
[9] = target: T6, B7H3 (CD276) on MC38-CD276+ cells; test: flow cytometry on MC38-CD276+ cells, VHH at 0.5 ug/ml
monkey B7H3-His [10] = target: T2, monkey B7H3-His; test: ELISA, purified VHH
Summary of the method: as §2

hB7H3-His = target: T7, hB7H3-His (human, UniProt Q5ZPR3 29-461, limits assumed); test: ELISA, purified VHH
T7 construct: not shown: His tag
T7 sequence (looked up): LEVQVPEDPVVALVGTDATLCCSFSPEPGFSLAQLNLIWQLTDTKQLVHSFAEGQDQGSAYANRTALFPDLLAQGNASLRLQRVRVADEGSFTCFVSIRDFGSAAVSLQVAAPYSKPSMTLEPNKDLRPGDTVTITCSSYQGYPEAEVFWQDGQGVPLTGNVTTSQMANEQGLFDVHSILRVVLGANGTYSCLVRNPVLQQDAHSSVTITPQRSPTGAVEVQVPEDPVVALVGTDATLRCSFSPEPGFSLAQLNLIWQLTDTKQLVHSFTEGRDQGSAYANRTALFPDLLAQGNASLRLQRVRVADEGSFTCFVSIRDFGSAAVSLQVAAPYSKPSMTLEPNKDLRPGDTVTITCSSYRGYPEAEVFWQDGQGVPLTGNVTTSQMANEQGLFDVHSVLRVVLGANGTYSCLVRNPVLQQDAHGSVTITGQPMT
Summary of the method: as §2

rat B7H3-His [11] = target: T3, rat B7H3-His; test: ELISA, purified VHH
Summary of the method: as §2

Non-relevant antigen [12] = test: ELISA, purified VHH
Summary of the method: as §2

B7H3-hFc = target: T8, B7H3-hFc (human, UniProt Q5ZPR3 29-456); test: ELISA, B7H3-hFc coated, VH-His-FLAG detected with anti-FLAG-HRP
T8 construct: also called recombinant B7H3-hFc; B7H3 ECD fused with human IgG1 Fc; not shown: human IgG1 Fc
T8 sequence: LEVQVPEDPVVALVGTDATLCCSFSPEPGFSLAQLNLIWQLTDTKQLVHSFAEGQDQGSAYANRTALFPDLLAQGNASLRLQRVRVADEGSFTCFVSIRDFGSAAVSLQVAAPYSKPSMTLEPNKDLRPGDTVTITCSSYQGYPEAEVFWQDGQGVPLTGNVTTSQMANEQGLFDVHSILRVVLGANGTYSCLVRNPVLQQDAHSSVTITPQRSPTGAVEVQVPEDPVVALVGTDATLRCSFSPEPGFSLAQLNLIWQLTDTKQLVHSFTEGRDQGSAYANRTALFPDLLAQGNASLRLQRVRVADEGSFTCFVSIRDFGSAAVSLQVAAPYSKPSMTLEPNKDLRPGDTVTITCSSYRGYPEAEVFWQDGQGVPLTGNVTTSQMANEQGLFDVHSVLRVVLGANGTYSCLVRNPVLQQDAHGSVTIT
Description: FIGS. 4A-4C: Binding properties of the B7H3 binders. (FIG. 4A) SDS-PAGE analysis of the purified A1 and B1 binders (VH-His-FLAG fusion) from E. coli. Two micrograms of purified B7H3-hFc, non-reduced (Non.) or reduced (Red.) by β-mercaptoethanol, were separated on an 8% SDS-PAGE gel. Protein bands were visualized by Coomassie blue R-250 staining. (FIG. 4B) Protein binding affinity measurement by ELISA. Five micrograms of B7H3-hFc were coated on the ELISA plate, and different concentrations of domain antibodies were incubated with the plate, and binding was detected by HRP conjugated anti-FLAG mouse monoclonal antibody M2. The binding curves were plotted using the software GraphPad Prism and the calculated EC50 values were determined by the software's algorithm of hyperbola one site binding. (FIG. 4C) Cell binding determination by flow cytometry. Ten microgram per mL domain antibody was co-incubated with one million cells. Antibody binding was visualized by APC conjugated anti-FLAG monoclonal antibody. The curves labelled “1” represent cells stained with secondary antibody only; the curves labelled “2” represent cells stained with A1 or B1 domain antibody.
The VH coding sequences of binders A1 and B1 were fused with His-FLAG tag at their C-termini and cloned into an E. coli expression vector. […] The purified yield was 2 mg/L (A1) and 10 mg/L fermentation (B1) respectively. […]

- ELISA signal [1]: 2.42
- ELISA signal (IgG control): 0.0888
- ELISA signal [2]: 2.34
- ELISA signal (monkey B7H3-His [3]): 0.228
- ELISA signal (rat B7H3-His [4]): 0.738
- ELISA signal (mouse B7H3-His): 0.0759
- ELISA signal (human B7H3): 2.14
- ELISA signal (Non-relevant antigen [5]): 0.0654
- ELISA signal (PD-L1): 0.0454
B1: RWC3 (VHH)
VHH: QVQLVESGGGLVQPGGSLSVSCAASGFTFSVYWFYWVRQAPRQGLEWVSTIASNGSTYYSDSVKGRFTISRDNAKNTVYLQMNSLKPEDTAVYYCVSDPDYYSDYERAYKFWAQGTQVTVSS
notes: Camel VHH; tag not described; also called camel antibody RWC3

- ELISA signal [1]: 2.43
- ELISA signal (IgG control): 0.0788
- ELISA signal [2]: 0.499
- ELISA signal (monkey B7H3-His [3]): 0.237
- ELISA signal (rat B7H3-His [4]): 0.778
- ELISA signal (mouse B7H3-His): 0.0782
- ELISA signal (human B7H3): 2.21
- ELISA signal (Non-relevant antigen [5]): 0.113
- ELISA signal (PD-L1): 0.0438
B2: RWD9 (VHH)
VHH: B1 VHH with Q1E
notes: Camel VHH; tag not described; also called camel antibody RWD9

- ELISA signal [1]: 2.5
- ELISA signal (IgG control): 0.0685
- ELISA signal [2]: 2.37
- ELISA signal (monkey B7H3-His [3]): 0.267
- ELISA signal (rat B7H3-His [4]): 0.871
- ELISA signal (mouse B7H3-His): 0.0819
- ELISA signal (human B7H3): 2.13
- ELISA signal (Non-relevant antigen [5]): 0.0583
- ELISA signal (PD-L1): 0.0471
- Positive rates [6]: 1.44%
- Positive rates [7]: 44.9%
- Positive rates [8]: 88.9%
- Positive rates [9]: 0.19%
B3: RWD5 (VHH)
VHH: B1 VHH with Q1A, A108E
notes: Camel VHH; tag not described; also called RWDS [sic]; camel antibody RWD5

- ELISA signal [1]: 2.75
- ELISA signal (IgG control): 0.136
- ELISA signal (monkey B7H3-His [10]): 1.3
- ELISA signal [2]: 2.59
- ELISA signal (hB7H3-His): 2.65
- ELISA signal (rat B7H3-His [11]): 0.134
- ELISA signal (Non-relevant antigen [12]): 0.131
- ELISA signal (monkey B7H3-His [3]): 0.0706
- ELISA signal (rat B7H3-His [4]): 0.0951
- ELISA signal (mouse B7H3-His): 0.0738
- ELISA signal (human B7H3): 2.03
- ELISA signal (Non-relevant antigen [5]): 0.0608
- ELISA signal (PD-L1): 0.0753
B4: RWH1 (VHH)
VHH: AVQLVESGGGSVQAGGSLRLSCAASGMNLDNYVRGWLRQAPGSKCEFVSIIRRDGTTDYGDSVKGRFTISRDNAKNTVYLQMNSLKPDDTAVYYCAAIVVPRAAEYACDGLPYRGQGTQVTVSS
notes: Camel VHH; tag not described; also called camel antibody RWH1

- ELISA signal (monkey B7H3-His [10]): 0.0979
- ELISA signal (monkey B7H3-His [3]): 2.22
B5: RWH5 (VHH)
VHH: AVQLVESGGGSVQAGGSLRLSCKASGYCMGWFRQAPGKEREGVAALNTEGGVTYYADSVKGRFSISRDNTNLYLQMNSLKPEDTAIYYCAADDRPTRCAVGSLYLPYTYRGQGTQVTVSS
notes: Camel VHH; tag not described; also called RWHS [sic]; camel antibody RWH5

- EC50 (B7H3-hFc): 403 nM
B6: RFA1 (other)
VH: QSLEESGGGLVTPGGTLTLTCTVSGFSLSSYGMSWVRQAPGKGLEWIGSMANNGDPYYASWAKGRFTISKTSTTVDLKITSPTTEDTATYFCVRAPWGSHSMWGPGTLVTVSSGGGGSGGGGSGGGGSDPVLTQTAGGGTNVEIK
notes: Rabbit VH single-domain antibody expressed in E. coli as VH-His-FLAG fusion; also called rabbit antibody RFA1; Al [sic]; not shown: 6x His tag and FLAG tag at the C-terminus
